The test has as its target T1, HIV-1 Rev protein (mobility shift assay, bound to stem-loop IIB RRE RNA) (HIV-1, strain  for this …, UniProt P04618).
T1 construct: also called IIB associated Rev
As to the kind of experiment: native gel or EMSA. As to conditions: both partners purified. On the technique in general: In EMSA bound probe runs differently from free probe, usually more slowly.

T1 sequence (P04618 whole entry): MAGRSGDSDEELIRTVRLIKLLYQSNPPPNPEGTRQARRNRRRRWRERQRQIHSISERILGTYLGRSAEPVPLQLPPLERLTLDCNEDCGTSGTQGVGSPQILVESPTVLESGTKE

B1: Nb190, wild type, purified from E. coli (VHH)
VHH: QVQLQESGGGLVQAGGSLRLSCAASGSIFSINTMGWYRQAPGKQRELVAFATSGGSTNYPDSVKGRFTISRDNVKNTVYLQMNSLKPEDTAVYYCNIDGFLGSLYKDYWSQGTQVTVSS
On to B1, for which the binding result was “binds”.
